Assay results as given in patent US20100304465.

Target: delta-plasminogen
Sequence (chain, as listed by the source mutant): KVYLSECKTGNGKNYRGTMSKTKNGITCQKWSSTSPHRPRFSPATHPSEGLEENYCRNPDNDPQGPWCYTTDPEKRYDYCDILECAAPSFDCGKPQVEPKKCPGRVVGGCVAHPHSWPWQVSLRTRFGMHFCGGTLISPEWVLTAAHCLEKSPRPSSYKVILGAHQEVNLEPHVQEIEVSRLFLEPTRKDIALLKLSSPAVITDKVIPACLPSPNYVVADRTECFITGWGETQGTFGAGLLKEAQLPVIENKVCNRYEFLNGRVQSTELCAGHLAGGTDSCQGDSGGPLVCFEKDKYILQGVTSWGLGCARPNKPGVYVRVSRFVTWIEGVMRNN

B1: tissue Plasminogen Activator (protein)
chain: SYQVICRDEKTQMIYQQHQSWLRPVLRSNRVEYCWCNSGRAQCHSVPVKSCSEPRCFNGGTCQQALYFSDFVCQCPEGFAGKCCEIDTRATCYEDQGISYRGTWSTAESGAECTNWNSSALAQKPYSGRRPDAIRLGLGNHNYCRNPDRDSKPWCYVFKAGKYSSEFCSTPACSEGNSDCYFGNGSAYRGTHSLTESGASCLPWNSMILIGKVYTAQNPSAQALGLGKHNYCRNPDGDAKPWCHVLKNRRLTWEYCDVPSCSTCGLRQYSQPQFRIKGGLFADIASHPWQAAIFAKHRRSPGERFLCGGILISSCWILSAAHCFQERFPPHHLTVILGRTYRVVPGEEEQKFEVEKYIVHKEFDDDTYDNDIALLQLKSDSSRCAQESSVVRTVCLPPADLQLPDWTECELSGYGKHEALSPFYSERLKEAHVRLYPSSRCTSQHLLNRTVTDNMLCAGDTRSGGPQANLHDACQGDSGGPLVCLNDGRMTLVGIISWGLGCGQKDVPGVYTKVTNYLDWIRDNMRP
conversion of one-chain delta-plasminogen into two-chain delta-plasmin (reduced SDS-PAGE): delta-plasminogen indeed can be activated by all three plasminogen activators
